Reference: PMC4434323

Tests used:
[1] = molecular target: T1, D1005.3 (D1005.3) (Caenorhabditis elegans) (UniProt Q18909)
T1 sequence: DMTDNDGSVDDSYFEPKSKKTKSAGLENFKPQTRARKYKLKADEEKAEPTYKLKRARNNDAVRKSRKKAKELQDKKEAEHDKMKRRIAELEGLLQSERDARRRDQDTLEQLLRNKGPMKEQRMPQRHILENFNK

[2] = molecular target: T2, T27F2.4 (T27F2.4) (Caenorhabditis elegans) (UniProt Q22835)
T2 sequence: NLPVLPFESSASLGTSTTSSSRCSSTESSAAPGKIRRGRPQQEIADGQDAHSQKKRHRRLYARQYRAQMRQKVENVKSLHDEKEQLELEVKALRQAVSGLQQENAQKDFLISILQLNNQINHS

[3] = molecular target: T3, atf-5 (T04C10.4) (Caenorhabditis elegans) (UniProt Q22156)
T3 sequence: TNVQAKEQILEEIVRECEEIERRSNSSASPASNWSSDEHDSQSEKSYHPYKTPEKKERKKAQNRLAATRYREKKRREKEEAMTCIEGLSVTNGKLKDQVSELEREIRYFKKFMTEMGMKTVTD

[4] = molecular target: atf-7 (C07G2.2) (Caenorhabditis elegans) (UniProt Q86MD3)
Chain of atf-7 (C07G2.2) (Caenorhabditis elegans) (Q86MD3 339-508): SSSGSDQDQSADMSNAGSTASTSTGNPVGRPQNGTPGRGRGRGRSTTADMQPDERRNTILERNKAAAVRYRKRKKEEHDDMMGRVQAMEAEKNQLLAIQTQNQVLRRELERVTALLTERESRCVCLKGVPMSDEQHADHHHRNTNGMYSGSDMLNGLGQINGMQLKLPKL

[5] = molecular target: T4, W08E12.1 (W08E12.1) (Caenorhabditis elegans) (UniProt Q9N5A8)
T4 sequence: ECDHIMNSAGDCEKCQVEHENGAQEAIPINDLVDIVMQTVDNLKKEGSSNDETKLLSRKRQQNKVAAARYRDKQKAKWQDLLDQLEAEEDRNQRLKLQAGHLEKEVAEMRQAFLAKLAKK

[6] = molecular target: T5, zip-3 (W07G1.3) (Caenorhabditis elegans) (UniProt Q9XUK2)
T5 sequence: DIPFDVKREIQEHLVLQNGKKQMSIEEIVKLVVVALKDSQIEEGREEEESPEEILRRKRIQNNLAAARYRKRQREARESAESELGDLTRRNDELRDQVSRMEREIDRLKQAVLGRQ

[7] = molecular target: T6, xbp-1 (R74.3) (Caenorhabditis elegans) (UniProt G5EE07)
T6 sequence: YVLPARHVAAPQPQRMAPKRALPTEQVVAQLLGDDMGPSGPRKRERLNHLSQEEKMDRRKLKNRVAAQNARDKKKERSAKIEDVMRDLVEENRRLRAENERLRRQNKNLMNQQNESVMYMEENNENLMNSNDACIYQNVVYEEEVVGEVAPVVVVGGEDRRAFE

[8] = molecular target: T7, dmd-6 (F13G11.1) (Caenorhabditis elegans) (UniProt O62159)
T7 sequence: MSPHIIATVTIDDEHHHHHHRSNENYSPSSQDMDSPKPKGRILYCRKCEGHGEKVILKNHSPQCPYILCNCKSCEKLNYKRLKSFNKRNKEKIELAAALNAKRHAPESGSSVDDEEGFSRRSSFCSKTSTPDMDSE

[9] = molecular target: T8, C46E10.8 (C46E10.8) (Caenorhabditis elegans) (UniProt O44719)
T8 sequence: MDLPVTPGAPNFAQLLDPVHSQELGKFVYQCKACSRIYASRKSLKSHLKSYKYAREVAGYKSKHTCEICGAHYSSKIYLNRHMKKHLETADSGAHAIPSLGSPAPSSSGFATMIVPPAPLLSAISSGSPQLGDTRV

[10] = molecular target: T9, nhr-154 (C13C4.2) (Caenorhabditis elegans) (UniProt O01931)
T9 sequence: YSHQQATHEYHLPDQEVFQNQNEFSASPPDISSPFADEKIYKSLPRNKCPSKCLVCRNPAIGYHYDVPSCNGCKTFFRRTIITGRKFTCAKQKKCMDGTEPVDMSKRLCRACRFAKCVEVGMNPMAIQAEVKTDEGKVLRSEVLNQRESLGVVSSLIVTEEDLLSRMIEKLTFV

[11] = molecular target: T10, nhr-3 (H01A20.1) (Caenorhabditis elegans) (UniProt Q9XTJ4)
T10 sequence: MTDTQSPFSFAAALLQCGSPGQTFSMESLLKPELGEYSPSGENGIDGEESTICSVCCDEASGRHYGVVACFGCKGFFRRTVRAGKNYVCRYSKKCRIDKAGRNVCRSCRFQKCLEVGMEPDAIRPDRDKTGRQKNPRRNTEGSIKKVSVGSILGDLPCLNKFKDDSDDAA

[12] = molecular target: T11, nhr-7 (F54D1.4) (Caenorhabditis elegans) (UniProt Q20765)
T11 sequence: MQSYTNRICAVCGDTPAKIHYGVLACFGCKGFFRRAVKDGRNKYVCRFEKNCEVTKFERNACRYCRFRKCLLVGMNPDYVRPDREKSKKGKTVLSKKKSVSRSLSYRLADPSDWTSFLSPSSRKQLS

[13] = molecular target: nhr-34 (F58G6.5) (Caenorhabditis elegans) (UniProt Q21006)
Chain of nhr-34 (F58G6.5) (Caenorhabditis elegans) (Q21006 99-268): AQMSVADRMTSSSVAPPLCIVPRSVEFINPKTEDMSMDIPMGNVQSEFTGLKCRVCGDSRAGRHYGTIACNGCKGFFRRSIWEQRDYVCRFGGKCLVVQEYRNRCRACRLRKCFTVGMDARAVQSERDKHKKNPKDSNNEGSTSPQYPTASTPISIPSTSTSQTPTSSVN

[14] = molecular target: T12, nhr-1 (R09G11.2) (Caenorhabditis elegans) (UniProt Q21878)
T12 sequence: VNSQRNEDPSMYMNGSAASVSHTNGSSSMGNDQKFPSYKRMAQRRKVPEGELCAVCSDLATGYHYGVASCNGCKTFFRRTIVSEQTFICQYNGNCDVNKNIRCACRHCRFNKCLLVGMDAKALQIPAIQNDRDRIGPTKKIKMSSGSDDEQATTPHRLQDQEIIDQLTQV

[15] = molecular target: T13, nhr-46 (C45E5.6) (Caenorhabditis elegans) (UniProt Q95QR2)
T13 sequence: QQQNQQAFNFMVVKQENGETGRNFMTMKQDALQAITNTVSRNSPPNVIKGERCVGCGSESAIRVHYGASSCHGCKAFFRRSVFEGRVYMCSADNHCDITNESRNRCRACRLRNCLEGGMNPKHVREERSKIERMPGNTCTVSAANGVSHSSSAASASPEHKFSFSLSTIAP

[16] = molecular target: T14, Y51H4A.4 (Y51H4A.4) (Caenorhabditis elegans) (UniProt Q9NAE4)
T14 sequence: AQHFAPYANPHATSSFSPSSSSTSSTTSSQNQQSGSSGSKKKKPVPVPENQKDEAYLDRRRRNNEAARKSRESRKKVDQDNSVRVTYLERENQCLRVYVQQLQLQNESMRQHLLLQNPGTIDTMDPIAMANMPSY

[17] = molecular target: T15, atf-6 (F45E6.2) (Caenorhabditis elegans) (UniProt Q20435)
T15 sequence: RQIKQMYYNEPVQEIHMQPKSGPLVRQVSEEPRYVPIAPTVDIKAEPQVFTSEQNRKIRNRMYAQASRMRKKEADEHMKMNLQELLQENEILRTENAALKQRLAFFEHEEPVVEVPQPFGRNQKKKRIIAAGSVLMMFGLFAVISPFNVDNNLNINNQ

[18] = molecular target: T16, pop-1 (W10C8.2) (Caenorhabditis elegans) (UniProt Q10666)
T16 sequence: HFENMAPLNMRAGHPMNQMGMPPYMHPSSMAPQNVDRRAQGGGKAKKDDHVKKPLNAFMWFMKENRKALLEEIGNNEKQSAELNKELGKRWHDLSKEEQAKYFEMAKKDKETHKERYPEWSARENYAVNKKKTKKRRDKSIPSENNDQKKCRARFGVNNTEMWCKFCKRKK

[19] = molecular target: T17, efl-2 (Y48C3A.17) (Caenorhabditis elegans) (UniProt A5HWA8)
T17 sequence: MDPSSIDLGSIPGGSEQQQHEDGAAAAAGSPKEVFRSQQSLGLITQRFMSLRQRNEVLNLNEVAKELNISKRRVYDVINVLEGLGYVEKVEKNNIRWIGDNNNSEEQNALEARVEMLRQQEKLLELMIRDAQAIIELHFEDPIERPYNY

[20] = molecular target: T18, ztf-27 (T09F3.1) (Caenorhabditis elegans) (UniProt G5EDA0)
T18 sequence: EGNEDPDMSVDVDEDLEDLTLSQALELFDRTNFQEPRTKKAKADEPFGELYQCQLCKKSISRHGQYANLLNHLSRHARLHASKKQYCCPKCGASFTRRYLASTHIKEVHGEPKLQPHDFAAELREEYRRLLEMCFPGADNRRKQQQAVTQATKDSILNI

[21] = molecular target: T19, F10B5.3 (F10B5.3) (Caenorhabditis elegans) (UniProt Q09534)
T19 sequence: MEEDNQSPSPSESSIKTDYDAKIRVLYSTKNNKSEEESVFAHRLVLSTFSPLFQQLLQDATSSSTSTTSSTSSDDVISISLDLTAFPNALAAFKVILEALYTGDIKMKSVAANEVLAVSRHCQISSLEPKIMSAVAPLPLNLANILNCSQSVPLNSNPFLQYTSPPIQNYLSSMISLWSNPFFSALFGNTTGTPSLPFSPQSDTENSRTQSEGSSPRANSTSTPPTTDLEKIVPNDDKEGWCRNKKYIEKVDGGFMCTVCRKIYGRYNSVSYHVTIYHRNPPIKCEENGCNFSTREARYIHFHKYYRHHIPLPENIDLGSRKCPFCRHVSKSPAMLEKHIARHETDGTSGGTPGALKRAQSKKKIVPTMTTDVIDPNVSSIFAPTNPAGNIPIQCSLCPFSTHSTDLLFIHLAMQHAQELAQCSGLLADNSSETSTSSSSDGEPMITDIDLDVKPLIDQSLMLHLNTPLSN

[22] = molecular target: T20, hsf-1 (Y53C10A.12) (Caenorhabditis elegans) (UniProt G5EFT5)
T20 sequence: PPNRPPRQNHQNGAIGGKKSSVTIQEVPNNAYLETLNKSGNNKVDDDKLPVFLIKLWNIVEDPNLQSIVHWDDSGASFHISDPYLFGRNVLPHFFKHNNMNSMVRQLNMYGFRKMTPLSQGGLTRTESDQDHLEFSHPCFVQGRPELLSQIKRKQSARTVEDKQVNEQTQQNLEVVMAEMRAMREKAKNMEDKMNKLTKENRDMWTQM

TTACGAAA (double strand) [8-mer TTACGAAA]
binding signal (PBM E-score (-0.5 to 0.5)) [1]: 0.464
binding signal (PBM E-score (-0.5 to 0.5)) [2]: 0.463

TGACGTCA (double strand) [8-mer TGACGTCA]
binding signal (PBM E-score (-0.5 to 0.5)) [3]: 0.5
binding signal (PBM E-score (-0.5 to 0.5)) [4]: 0.5
binding signal (PBM E-score (-0.5 to 0.5)) [5]: 0.5
binding signal (PBM E-score (-0.5 to 0.5)) [6]: 0.5

TTGCGAAA (double strand) [8-mer TTGCGAAA]
binding signal (PBM E-score (-0.5 to 0.5)) [1]: 0.466

ATGACGTG (double strand) [8-mer ATGACGTG]
binding signal (PBM E-score (-0.5 to 0.5)) [3]: 0.485
binding signal (PBM E-score (-0.5 to 0.5)) [7]: 0.451
binding signal (PBM E-score (-0.5 to 0.5)) [4]: 0.499
binding signal (PBM E-score (-0.5 to 0.5)) [6]: 0.494

AATTTATA (double strand) [8-mer AATTTATA]
binding signal (PBM E-score (-0.5 to 0.5)) [8]: 0.471
binding signal (PBM E-score (-0.5 to 0.5)) [9]: 0.457

ACGTCATC (double strand) [8-mer ACGTCATC]
binding signal (PBM E-score (-0.5 to 0.5)) [3]: 0.49
binding signal (PBM E-score (-0.5 to 0.5)) [7]: 0.471
binding signal (PBM E-score (-0.5 to 0.5)) [4]: 0.499
binding signal (PBM E-score (-0.5 to 0.5)) [6]: 0.493

AGGCGCCA (double strand) [8-mer AGGCGCCA]
binding signal (PBM E-score (-0.5 to 0.5)) [10]: 0.452

AAAGATCA (double strand) [8-mer AAAGATCA]
binding signal (PBM E-score (-0.5 to 0.5)) [11]: 0.488
binding signal (PBM E-score (-0.5 to 0.5)) [12]: 0.476
binding signal (PBM E-score (-0.5 to 0.5)) [13]: 0.485
binding signal (PBM E-score (-0.5 to 0.5)) [14]: 0.472
binding signal (PBM E-score (-0.5 to 0.5)) [15]: 0.49

TGACGTAA (double strand) [8-mer TGACGTAA]
binding signal (PBM E-score (-0.5 to 0.5)) [16]: 0.454
binding signal (PBM E-score (-0.5 to 0.5)) [3]: 0.49
binding signal (PBM E-score (-0.5 to 0.5)) [17]: 0.459
binding signal (PBM E-score (-0.5 to 0.5)) [4]: 0.495
binding signal (PBM E-score (-0.5 to 0.5)) [5]: 0.47

CTTTGATC (double strand) [8-mer CTTTGATC]
binding signal (PBM E-score (-0.5 to 0.5)) [18]: 0.451

GGCGCCAA (double strand) [8-mer GGCGCCAA]
binding signal (PBM E-score (-0.5 to 0.5)) [10]: 0.46
binding signal (PBM E-score (-0.5 to 0.5)) [19]: 0.488

AAGACCAA (double strand) [8-mer AAGACCAA]
binding signal (PBM E-score (-0.5 to 0.5)) [11]: 0.457
binding signal (PBM E-score (-0.5 to 0.5)) [12]: 0.469
binding signal (PBM E-score (-0.5 to 0.5)) [13]: 0.473

ATCAAAGA (double strand) [8-mer ATCAAAGA]
binding signal (PBM E-score (-0.5 to 0.5)) [18]: 0.456

AAAGACCA (double strand) [8-mer AAAGACCA]
binding signal (PBM E-score (-0.5 to 0.5)) [11]: 0.459
binding signal (PBM E-score (-0.5 to 0.5)) [12]: 0.472

TGGCGCCA (double strand) [8-mer TGGCGCCA]
binding signal (PBM E-score (-0.5 to 0.5)) [10]: 0.474
binding signal (PBM E-score (-0.5 to 0.5)) [20]: 0.491
binding signal (PBM E-score (-0.5 to 0.5)) [19]: 0.492

AATTTATG (double strand) [8-mer AATTTATG]
binding signal (PBM E-score (-0.5 to 0.5)) [9]: 0.465

AAGATCAA (double strand) [8-mer AAGATCAA]
binding signal (PBM E-score (-0.5 to 0.5)) [11]: 0.486
binding signal (PBM E-score (-0.5 to 0.5)) [12]: 0.455
binding signal (PBM E-score (-0.5 to 0.5)) [13]: 0.494
binding signal (PBM E-score (-0.5 to 0.5)) [15]: 0.496

ATAAATTA (double strand) [8-mer ATAAATTA]
binding signal (PBM E-score (-0.5 to 0.5)) [9]: 0.451

TTCTAGAA (double strand) [8-mer TTCTAGAA]
binding signal (PBM E-score (-0.5 to 0.5)) [21]: 0.477
binding signal (PBM E-score (-0.5 to 0.5)) [22]: 0.498

TTCCAGAA (double strand) [8-mer TTCCAGAA]
binding signal (PBM E-score (-0.5 to 0.5)) [21]: 0.491
binding signal (PBM E-score (-0.5 to 0.5)) [22]: 0.489

CATCAAAG (double strand) [8-mer CATCAAAG]
binding signal (PBM E-score (-0.5 to 0.5)) [18]: 0.463

TAAATTTA (double strand) [8-mer TAAATTTA]
binding signal (PBM E-score (-0.5 to 0.5)) [9]: 0.459
